Test results from patent US20250041437A1, “HUMANIZED MUC1 ANTIBODY AND ANTIBODY DRUG CONJUGATE” (Sun Pharma Advanced Research Company Limited, priority 2023, published 2025).

Assays:
[1] = molecular target: human MUC1 on cells (DA3-TM transfectants and human cancer cell lines SKOV3, COLO357, HT29 and others) (human) (UniProt P15941); experiment: flow cytometry on DA3-TM cells; table row 5 of 5 from the top, concentration not printed in this figure
[2] = molecular target: human MUC1 on cells (DA3-TM transfectants and human cancer cell lines SKOV3, COLO357, HT29 and others) (human) (UniProt P15941); experiment: flow cytometry on DA3-TM cells; table row 2 of 5 from the top, concentration not printed in this figure
[3] = molecular target: human MUC1 on cells (DA3-TM transfectants and human cancer cell lines SKOV3, COLO357, HT29 and others) (human) (UniProt P15941); experiment: flow cytometry on DA3-TM cells; table row 4 of 5 from the top, concentration not printed in this figure
[4] = molecular target: human MUC1 on cells (DA3-TM transfectants and human cancer cell lines SKOV3, COLO357, HT29 and others) (human) (UniProt P15941); experiment: flow cytometry on DA3-TM cells; table row 3 of 5 from the top, concentration not printed in this figure

Sequence of human MUC1 on cells (DA3-TM transfectants and human cancer cell lines SKOV3, COLO357, HT29 and others) (human) (P15941 24-1255 limits assumed): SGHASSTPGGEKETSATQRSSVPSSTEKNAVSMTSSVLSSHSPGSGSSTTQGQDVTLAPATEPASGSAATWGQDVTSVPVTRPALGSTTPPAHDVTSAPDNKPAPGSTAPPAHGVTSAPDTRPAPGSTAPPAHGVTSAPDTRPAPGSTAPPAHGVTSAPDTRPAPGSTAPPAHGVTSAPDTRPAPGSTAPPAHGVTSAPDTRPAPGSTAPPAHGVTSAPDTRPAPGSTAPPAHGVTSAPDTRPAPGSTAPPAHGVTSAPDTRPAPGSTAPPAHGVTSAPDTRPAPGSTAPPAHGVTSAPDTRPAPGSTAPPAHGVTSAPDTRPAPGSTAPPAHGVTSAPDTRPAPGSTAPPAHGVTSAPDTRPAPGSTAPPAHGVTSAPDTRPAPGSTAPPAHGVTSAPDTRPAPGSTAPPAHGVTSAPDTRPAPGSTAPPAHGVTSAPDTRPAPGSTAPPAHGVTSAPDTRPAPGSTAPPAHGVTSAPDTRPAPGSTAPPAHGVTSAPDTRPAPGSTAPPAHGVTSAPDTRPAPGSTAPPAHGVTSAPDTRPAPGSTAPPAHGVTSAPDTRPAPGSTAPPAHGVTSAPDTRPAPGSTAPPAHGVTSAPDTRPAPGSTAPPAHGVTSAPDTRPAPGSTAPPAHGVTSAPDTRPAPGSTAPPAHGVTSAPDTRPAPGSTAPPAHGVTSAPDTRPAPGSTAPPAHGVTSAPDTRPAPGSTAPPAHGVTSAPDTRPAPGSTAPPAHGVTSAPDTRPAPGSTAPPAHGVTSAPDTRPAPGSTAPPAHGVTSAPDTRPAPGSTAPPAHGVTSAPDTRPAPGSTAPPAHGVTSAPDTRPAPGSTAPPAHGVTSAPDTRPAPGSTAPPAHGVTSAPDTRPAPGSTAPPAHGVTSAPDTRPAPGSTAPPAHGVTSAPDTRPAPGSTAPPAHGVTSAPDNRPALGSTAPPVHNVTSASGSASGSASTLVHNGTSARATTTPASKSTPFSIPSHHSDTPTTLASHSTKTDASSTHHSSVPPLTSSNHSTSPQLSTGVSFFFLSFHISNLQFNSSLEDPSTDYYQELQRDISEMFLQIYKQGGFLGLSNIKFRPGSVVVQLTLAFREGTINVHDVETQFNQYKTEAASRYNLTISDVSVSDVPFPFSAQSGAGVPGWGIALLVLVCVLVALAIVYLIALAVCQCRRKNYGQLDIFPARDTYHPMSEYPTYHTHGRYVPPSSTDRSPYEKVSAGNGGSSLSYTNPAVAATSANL

B1: Hu-5F3 (HM1 LM2) (antibody, V domains shown)
VH: EIQLVQSGAEVKKPGSSVKVSCKVTGHSITRGSSWHWMRQAPGQGLEWIGYIHYGGGTSYNPSLKSRATLTVDTSTNTAYMELSSLRSEDTAFYFCARYSYDITYRWFFDVWGQGTLVTVSS
VL: DIQMTQSPSTLSASVGDRVTITCRASQNIGTSIHWYQQKPGKAPKLLIKRASESISGVPSRFSGSGSGTEFTLTISSLQPDDFATYYCQQNNNWPLTFGQGTKVEVK
- Geometric Mean : FL6-A [1]: 35.9
- Geometric Mean : FL6-A [2]: 114
- Geometric Mean : FL6-A [3]: 45.3
- Geometric Mean : FL6-A [4]: 71.4
